125 sequences from the supplement of paper PMC9112550, “Optimization of the antimicrobial peptide Bac7 by deep mutational scanning” (BMC Biology, 2022) can be followed below.

The data set concerns Escherichia coli TOP10. Briefly: shrunken log2 fold change of peptide-encoding DNA abundance (4.5 h post-induction vs induction); higher = less antimicrobial activity (less host growth inhibition). The settings on record: time post-induction: 4.5 h; library: site-saturation at positions 5, 18, 19, 20.
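Note: peptides expressed intracellularly from a pBAD plasmid library in pooled LB shake-flask culture, induced with 0.3% L-arabinose, DNA abundance read by NGS, three biological replicates, DESeq2 with apeglm shrinkage.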

Regarding RRIRYRPPRLPRPRPRPLAEPRP, the “shrunken log2 fold change” value is -0.149.
Take RRIRERPPRLPRPRPRPFFIPRP: the “shrunken log2 fold change” value is -0.354.
Regarding RRIRDRPPRLPRPRPRPRGRPRP, the “shrunken log2 fold change” value came to 0.614.
Regarding RRIRKRPPRLPRPRPRPHPTPRP, the “shrunken log2 fold change” value was 0.431.
In the case of RRIRWRPPRLPRPRPRPNGIPRP, the “shrunken log2 fold change” value was 0.0301.
RRIRYRPPRLPRPRPRPVYVPRP: the “shrunken log2 fold change” value is -0.37.
As to RRIRPRPPRLPRPRPRPNNPPRP, the “shrunken log2 fold change” value was -0.415.
On to RRIRNRPPRLPRPRPRPAQPPRP, for which the “shrunken log2 fold change” value was -0.0398.
Consider RRIRNRPPRLPRPRPRPFLNPRP, for which the “shrunken log2 fold change” value is -0.392.
RRIRYRPPRLPRPRPRPMMFPRP: the “shrunken log2 fold change” value is -0.091.
Take RRIRQRPPRLPRPRPRPQKLPRP: the “shrunken log2 fold change” value was -0.0725.
For RRIRDRPPRLPRPRPRPVPEPRP, the “shrunken log2 fold change” value came to 0.252.
Turning to RRIRGRPPRLPRPRPRPKMVPRP, the “shrunken log2 fold change” value worked out at 0.79.
As for RRIRTRPPRLPRPRPRPIHPPRP, the “shrunken log2 fold change” value is -0.389.
In the case of RRIRSRPPRLPRPRPRPDRFPRP, the “shrunken log2 fold change” value was -0.0456.
In the case of RRIRDRPPRLPRPRPRPGQVPRP, the “shrunken log2 fold change” value was 0.203.
For the sequence RRIRARPPRLPRPRPRPCVAPRP, the “shrunken log2 fold change” value came out at 0.715.
For the sequence RRIRNRPPRLPRPRPRPQNCPRP, the “shrunken log2 fold change” value was found to be 0.0292.
As for RRIRLRPPRLPRPRPRPYMSPRP, the “shrunken log2 fold change” value was -0.0167.
For RRIRDRPPRLPRPRPRPIKYPRP, the “shrunken log2 fold change” value is -0.206.
As for RRIRRRPPRLPRPRPRPFKRPRP, the “shrunken log2 fold change” value is -2.89e-05.
With RRIRKRPPRLPRPRPRPQRFPRP the figure was -0.00315; with RRIRSRPPRLPRPRPRPICNPRP, -0.0128.
For RRIRNRPPRLPRPRPRPGNQPRP, the “shrunken log2 fold change” value is -0.00674.
Next, RRIRTRPPRLPRPRPRPEQMPRP: 0.233; RRIRTRPPRLPRPRPRPMYGPRP: -0.000687; RRIRSRPPRLPRPRPRPAIYPRP: -1.04.
Take RRIRVRPPRLPRPRPRPIMYPRP: the “shrunken log2 fold change” value was -0.514.
As to RRIRHRPPRLPRPRPRPKDVPRP, the “shrunken log2 fold change” value came to 0.0703.
For RRIRPRPPRLPRPRPRPYHFPRP, the “shrunken log2 fold change” value was -0.245.
On to RRIRNRPPRLPRPRPRPSFDPRP, for which the “shrunken log2 fold change” value was -0.427.
For RRIRHRPPRLPRPRPRPYYPPRP, the “shrunken log2 fold change” value was -0.228.
Consider RRIRSRPPRLPRPRPRPHHAPRP, for which the “shrunken log2 fold change” value is -0.41.
On to RRIRCRPPRLPRPRPRPSSSPRP, for which the “shrunken log2 fold change” value is -0.366.
For RRIRGRPPRLPRPRPRPWDDPRP, the “shrunken log2 fold change” value was found to be 0.137.
Turning to RRIRPRPPRLPRPRPRPETDPRP, the “shrunken log2 fold change” value was 0.229.
For RRIRNRPPRLPRPRPRPGWSPRP, the “shrunken log2 fold change” value was 0.2.
Next, RRIRKRPPRLPRPRPRPNYKPRP: -0.507.
Take RRIRSRPPRLPRPRPRPEWCPRP: the “shrunken log2 fold change” value was 0.219.
On to RRIRPRPPRLPRPRPRPIYYPRP, for which the “shrunken log2 fold change” value is -0.323.
Take RRIRNRPPRLPRPRPRPKKHPRP: the “shrunken log2 fold change” value is -0.315.
In the case of RRIRDRPPRLPRPRPRPNQCPRP, the “shrunken log2 fold change” value is -0.436.
For RRIRDRPPRLPRPRPRPMHSPRP, the “shrunken log2 fold change” value came to 0.117.
Turning to RRIRMRPPRLPRPRPRPHMDPRP, the “shrunken log2 fold change” value is -0.604.
Take RRIRFRPPRLPRPRPRPPHAPRP: the “shrunken log2 fold change” value turned out to be 0.491.
In the case of RRIRIRPPRLPRPRPRPNYSPRP, the “shrunken log2 fold change” value is -0.937.
With RRIRLRPPRLPRPRPRPENLPRP, the “shrunken log2 fold change” value is 0.0256.
In the case of RRIRIRPPRLPRPRPRPPSHPRP, the “shrunken log2 fold change” value is -0.0543.
As for RRIRLRPPRLPRPRPRPCNCPRP, the “shrunken log2 fold change” value amounted to 0.045.
RRIRGRPPRLPRPRPRPMDRPRP: the “shrunken log2 fold change” value was determined as 0.156.
As to RRIRSRPPRLPRPRPRPTKEPRP, the “shrunken log2 fold change” value was -0.441.
With RRIRQRPPRLPRPRPRPNQFPRP the figure was 0.0334; with RRIRCRPPRLPRPRPRPPYLPRP, -0.87.
With RRIRYRPPRLPRPRPRPVAMPRP, the “shrunken log2 fold change” value was -0.464.
RRIRFRPPRLPRPRPRPMPQPRP: the “shrunken log2 fold change” value was -0.0791.
Regarding RRIRCRPPRLPRPRPRPDMHPRP, the “shrunken log2 fold change” value is 0.0405.
For RRIRTRPPRLPRPRPRPDSNPRP, the “shrunken log2 fold change” value was 0.0255.
RRIRIRPPRLPRPRPRPEVNPRP: the “shrunken log2 fold change” value was -0.294.
Take RRIRQRPPRLPRPRPRPRPLPRP: the “shrunken log2 fold change” value was 0.382.
For the sequence RRIRARPPRLPRPRPRPEDCPRP, the “shrunken log2 fold change” value amounted to 0.243.
Next, RRIRTRPPRLPRPRPRPWHHPRP: 0.0255; RRIRIRPPRLPRPRPRPTYFPRP: -0.522.
In the case of RRIRFRPPRLPRPRPRPMFIPRP, the “shrunken log2 fold change” value was -0.443.
Take RRIRYRPPRLPRPRPRPTGGPRP: the “shrunken log2 fold change” value was -0.0407.
Next, RRIRVRPPRLPRPRPRPPFRPRP: 0.421; RRIRHRPPRLPRPRPRPACRPRP: -0.141.
Next, RRIRNRPPRLPRPRPRPKWMPRP: -0.19; RRIRDRPPRLPRPRPRPGPSPRP: -0.0742.
Regarding RRIRIRPPRLPRPRPRPDYFPRP, the “shrunken log2 fold change” value came out at 0.197.
For the sequence RRIRARPPRLPRPRPRPWQEPRP, the “shrunken log2 fold change” value was -0.0122.
For RRIRPRPPRLPRPRPRPQRIPRP, the “shrunken log2 fold change” value turned out to be 0.0114.
For the sequence RRIRGRPPRLPRPRPRPDYGPRP, the “shrunken log2 fold change” value amounted to 0.0184.
For RRIRWRPPRLPRPRPRPELLPRP, the “shrunken log2 fold change” value was found to be 0.485.
Consider RRIRIRPPRLPRPRPRPKGEPRP, for which the “shrunken log2 fold change” value was 0.00835.
With RRIRQRPPRLPRPRPRPVNWPRP the figure was 0.472; with RRIRRRPPRLPRPRPRPNHFPRP, -0.0507; with RRIRTRPPRLPRPRPRPIRYPRP, -0.0148.
With RRIRVRPPRLPRPRPRPFLVPRP, the “shrunken log2 fold change” value is -0.527.
Consider RRIRIRPPRLPRPRPRPTDFPRP, for which the “shrunken log2 fold change” value is -0.109.
As for RRIRGRPPRLPRPRPRPQKAPRP, the “shrunken log2 fold change” value was -0.027.
Regarding RRIRGRPPRLPRPRPRPTVHPRP, the “shrunken log2 fold change” value worked out at 1.77.
With RRIRIRPPRLPRPRPRPKKHPRP the figure was -0.21; with RRIRKRPPRLPRPRPRPHAYPRP, 0.0163.
Next, RRIRSRPPRLPRPRPRPGPSPRP: 0.456; RRIRNRPPRLPRPRPRPCQNPRP: -0.835; RRIRQRPPRLPRPRPRPYAEPRP: -0.0595.
With RRIRLRPPRLPRPRPRPCVEPRP, the “shrunken log2 fold change” value was -0.124.
For the sequence RRIRSRPPRLPRPRPRPKHVPRP, the “shrunken log2 fold change” value was -0.183.
For the sequence RRIRRRPPRLPRPRPRPQNCPRP, the “shrunken log2 fold change” value was -0.275.
With RRIRYRPPRLPRPRPRPNSRPRP the figure was -0.156; with RRIRSRPPRLPRPRPRPSGCPRP, 0.208; with RRIRDRPPRLPRPRPRPKLRPRP, -0.0184.
As to RRIRHRPPRLPRPRPRPIAQPRP, the “shrunken log2 fold change” value was -0.0267.
Consider RRIRYRPPRLPRPRPRPVQGPRP, for which the “shrunken log2 fold change” value is -0.0822.
As to RRIRQRPPRLPRPRPRPVPRPRP, the “shrunken log2 fold change” value worked out at 0.829.
Next, RRIRGRPPRLPRPRPRPAHKPRP: 0.551; RRIRWRPPRLPRPRPRPYDQPRP: -0.395.
On to RRIRYRPPRLPRPRPRPNNMPRP, for which the “shrunken log2 fold change” value was -0.633.
With RRIRWRPPRLPRPRPRPETDPRP, the “shrunken log2 fold change” value turned out to be 0.773.
Turning to RRIRERPPRLPRPRPRPVVLPRP, the “shrunken log2 fold change” value was -0.0819.
RRIRMRPPRLPRPRPRPEQEPRP: the “shrunken log2 fold change” value turned out to be 0.033.
As to RRIRKRPPRLPRPRPRPRSEPRP, the “shrunken log2 fold change” value is -0.00081.
With RRIRDRPPRLPRPRPRPANEPRP the figure was 0.0557; with RRIRIRPPRLPRPRPRPQRFPRP, -0.231; with RRIRWRPPRLPRPRPRPHAVPRP, 0.172.
Turning to RRIRARPPRLPRPRPRPLWAPRP, the “shrunken log2 fold change” value came out at 0.589.
With RRIRERPPRLPRPRPRPQCVPRP, the “shrunken log2 fold change” value was -0.0437.
Next, RRIRQRPPRLPRPRPRPFETPRP: -0.232; RRIRLRPPRLPRPRPRPTAEPRP: 0.16.
RRIRPRPPRLPRPRPRPSGAPRP: the “shrunken log2 fold change” value worked out at 0.345.
RRIRCRPPRLPRPRPRPRGDPRP: the “shrunken log2 fold change” value worked out at 0.867.
With RRIRLRPPRLPRPRPRPQNLPRP the figure was -0.149; with RRIRRRPPRLPRPRPRPQKNPRP, 0.204.
RRIRWRPPRLPRPRPRPMLIPRP: the “shrunken log2 fold change” value is 0.157.
Next, RRIRWRPPRLPRPRPRPEQDPRP: -0.0232.
As for RRIRHRPPRLPRPRPRPTHCPRP, the “shrunken log2 fold change” value is -0.000996.
With RRIRDRPPRLPRPRPRPCCHPRP the figure was 0.0218; with RRIRQRPPRLPRPRPRPELQPRP, -0.0257; with RRIRPRPPRLPRPRPRPWKGPRP, 0.0625.
As for RRIRVRPPRLPRPRPRPMPEPRP, the “shrunken log2 fold change” value was -0.192.
As to RRIRKRPPRLPRPRPRPGTPPRP, the “shrunken log2 fold change” value came to 0.824.
RRIRWRPPRLPRPRPRPRDYPRP: the “shrunken log2 fold change” value was -0.127.
In the case of RRIRYRPPRLPRPRPRPWWPPRP, the “shrunken log2 fold change” value is -0.254.
On to RRIRDRPPRLPRPRPRPYGLPRP, for which the “shrunken log2 fold change” value was -0.0553.
With RRIRTRPPRLPRPRPRPCKPPRP the figure was -0.996.
